Test results published in patent US20140148381A1 (INDIANA UNIVERSITY RESEARCH AND TECHNOLOGY, published 2014).

Key:
[1] = molecular target: HBV wild type core protein expressed in Huh7 cells (subtype ayw) (Hepatitis B virus, subtype ayw) (UniProt P03146); experiment: cell-based or functional assay
[2] = molecular target: HBV Cp149-WT (wild type HBV core protein assembly domain, N-terminal first 149 residues), dimer (Hepatitis B virus, adyw strain); experiment: SEC of assembly reactions, 100 mM NaCl, 23° C.
[3] = molecular target: HBV Cp149-WT (wild type HBV core protein assembly domain, N-terminal first 149 residues), dimer (Hepatitis B virus, adyw strain); experiment: SEC of capsid and dimer after 72 h assembly at 100 mM NaCl, 23° C.; mean equilibrium dimer concentration
[4] = molecular target: HBV Cp149-WT (wild type HBV core protein assembly domain, N-terminal first 149 residues), dimer (Hepatitis B virus, adyw strain); experiment: SEC of capsid and dimer after 72 h assembly at 100 mM NaCl, 23° C.; self-association of Cp149 dimers
[5] = molecular target: the molecule itself; experiment: SEC of capsid and dimer after 72 h assembly at 100 mM NaCl, 23° C.; self-association of Cp149-V124W dimers; 100 mM NaCl, 23° C., SEC after 72 h equilibration; Table 3 value
[6] = molecular target: the molecule itself; experiment: SEC of assembly reactions, 100 mM NaCl, 72 h, 23° C.; 100 mM NaCl, 72 h, 23° C.; ratio of WT to V124W pseudo-critical concentration
[7] = molecular target: the molecule itself; experiment: thermodynamic calculation from SEC, 23° C., 100 mM NaCl; 100 mM NaCl, 23° C.; value in the text, which differs from Table 3

## HBV V124W core protein expressed in Huh7 cells (subtype ayw) (from UniProt P03146 1-183)
[1]
  dlDNA yield, Southern blot of encapsidated DNA, WT:V124W = 1:1 co-transfection in Huh7 cells: 23 % of WT
  rcDNA yield, Southern blot of encapsidated DNA, WT:V124W = 1:1 co-transfection in Huh7 cells: 8 % of WT
  ssDNA yield, Southern blot of encapsidated DNA, WT:V124W = 1:1 co-transfection in Huh7 cells: 37 % of WT
  total DNA yield, Southern blot of encapsidated DNA, WT:V124W = 1:1 co-transfection in Huh7 cells: 31 % of WT

## HBV Cp149-WT (wild type HBV core protein assembly domain, N-terminal first 149 residues), dimer
[2]
  pseudo-critical concentration: 43.6 µM
[3]
  KD, apparent: 43.3 µM
[4]
  ΔGcontact: -2.74 kcal/mol

B1: HBV Cp149-V124W (core protein assembly domain with V124W), dimer (other)
chain: MDIDPYKEFGATVELLSFLPSDFFPSVRDLLDTAAALYRDALESPEHCSPHHTALRQAILCWGDLMTLATWVGTNLEDPASRDLVVSYVNTNVGLKFRQLLWFHISCLTFGRETVLEYLVSFGWWIRTPPAYRPPNAPILSTLPETTVV
notes: also called HBV Cpdominant 1; Cpdominant 1
[5]
  ΔGcontact: -3.84 kcal/mol
[6]
  fold difference of pseudo-critical concentration against WT: 40 fold
[7]
  ΔGcont: -3.73 kcal/mol
